In article PMC4349574 (Developmental cell, 2013):

Target: T1, Ypp1 (residues 11–817), purified, GST tag removed (S. cerevisiae, UniProt P46951 11-817)
T1 sequence (looked up): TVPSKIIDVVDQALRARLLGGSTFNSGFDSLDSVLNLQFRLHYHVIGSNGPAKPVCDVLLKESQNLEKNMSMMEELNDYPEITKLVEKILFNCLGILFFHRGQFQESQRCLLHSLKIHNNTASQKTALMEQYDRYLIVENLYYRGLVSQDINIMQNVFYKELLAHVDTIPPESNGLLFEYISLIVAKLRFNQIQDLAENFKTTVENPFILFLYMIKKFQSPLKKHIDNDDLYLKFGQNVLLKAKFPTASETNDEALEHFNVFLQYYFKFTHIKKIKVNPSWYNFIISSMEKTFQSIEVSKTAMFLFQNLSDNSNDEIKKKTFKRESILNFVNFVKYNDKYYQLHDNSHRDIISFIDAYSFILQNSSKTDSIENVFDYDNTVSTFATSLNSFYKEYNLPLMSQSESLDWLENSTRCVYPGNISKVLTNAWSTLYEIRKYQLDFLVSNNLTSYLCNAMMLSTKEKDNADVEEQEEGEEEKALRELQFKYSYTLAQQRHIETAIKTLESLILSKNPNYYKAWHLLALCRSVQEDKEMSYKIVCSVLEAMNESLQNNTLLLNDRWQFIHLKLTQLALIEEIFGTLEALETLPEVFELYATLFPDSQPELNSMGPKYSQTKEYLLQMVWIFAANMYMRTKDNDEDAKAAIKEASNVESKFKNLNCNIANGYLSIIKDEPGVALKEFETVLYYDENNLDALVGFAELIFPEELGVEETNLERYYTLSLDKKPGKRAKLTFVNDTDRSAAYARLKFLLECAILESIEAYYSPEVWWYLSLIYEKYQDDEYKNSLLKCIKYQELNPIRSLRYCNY
Assay: pull-down

B1: GST-Efr3-C_(651–730) (domain or fragment, S. cerevisiae, UniProt Q03653 651-730, looked up)
chain: APKVSDLKKTMNEKNIPNNMKRDGSFRGSQSVKSRVTNITFLLNELKTFSDDANKIKDPDEENIVGLDKIDVARSNSLRL
binding result: binds
